Source: article PMC11326647, “In vitro reconstitution reveals membrane clustering and RNA recruitment by the enteroviral AAA+ ATPase 2C” (PLOS Pathogens, 2023)

Molecular target: His6-MBP-tagged poliovirus 2C([change]) (residues 1-11, 41-329) (poliovirus type 1 Mahoney) (UniProt P03300)
Experiment: mass photometry

His6-MBP-tagged poliovirus 2C([change]) (residues 1-11, 41-329) (from UniProt P03300 1128-1456) (natural protein)
stoichiometry N: 2
